Experimental data taken from the nanobody polyreactivity screen of Harvey et al. (2022).

Assay: yeast display, Sf9 membrane polyspecificity reagent, FACS + sequencing; frameworks hold sequencing errors
How it was run: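 In a synthetic yeast display library (Saccharomyces cerevisiae BJ5465), nanobody expression was induced with galactose for 36–48 hours. FACS gates were set low and high (top ~1%) using anti-HA fluorescence for expression and streptavidin fluorescence for binding of the Sf9 membrane reagent. Each polyreactivity label is drawn from the gate of origin.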

Sequence	polyreactivity (PSR sort gate)
QGQLVESGGGLVQAGGSLRLSCAASGRTFIGNVMGWYRQAPGKERELVAAISKSGTRTYYADSVKGRFTISRDIAKNTVYLQMNSLKPEDTAVYYCAASSYTHKRYPSPYDYWGQGTQVTVSA	high polyreactivity
QGQLVESGGGLVQAGGSLRLSCAASGRTFPRYAMGWYRQAPGKERELVAVISFSGDSTSYADSVKGRFTISRDNAKNTVYLQMNSQKPEDTAVYYCKADYKSTVVRYSGSRNYWGQGTQVTVSS	low polyreactivity
QGQLVESGGGLVQAGGSLRLSCAASGRTFYYNGMGWYRQAPGKERELVATITNGGSTNYADSVKGRFTISRDNAKNTVYLQMNSLKPEDTAVYYCAKTLASDCYDYWGQGTQVTVSS	low polyreactivity
QGQLVESGGGLVQAGGSLRLSCAASGSIFGINAMGWYRQAPGKERELVAAISGSTSRTYYADSVKGRFTISRDNAKKTVYLQMNSLKPEDTAVYYCAVVGLRSVTRRSDYWGQGTQVTVSS	high polyreactivity
QGQLVESGGGLVQAGGSLRLSCAASGSIFPVYAMGWYRQAPGKEREFVARIRFSGGRTYYADSVQGRFTISRDNAKNTVYLQMNSLKPEDTAVYYCAKAQYSGRYGYWGQGTQVTVSS	high polyreactivity
QGQLVESGGGLVQAGGSLRLSCAASGSIIRSYAMGWYRQAPGKERELVASISRRGGSTYYADSVKGRFTISRDNAKNTVYLQMNSLKPEDTAVYYCAAVRYNSRVSTTPSEMYYWGQGTQVTVSS	low polyreactivity
QGQLVESGGGLVQAGGSLRLSCAASGSTFPSYAMGWYRQAPGKERELVAAISRRSSRTYYADSVKGRFTISRDNAKNTVYLQMNSLKPEDTAVYYCNADAGRHSDEYGYDYWGQGTEVTVSS	high polyreactivity
QGQLVESGGGLVQAGGSLRLSCAASGSTVPQYAMGWYRQAPGKERELVAVITDSGGSTYYADSVKGRFTISRDNAKNTVYLQMNSLKPEDTAVYYCAARRWSPRSGLGYGYWGQGTQVTVSS	high polyreactivity
QGQLVESGGGLVQAGGSLRLSCAASGYTFNYNTMGWYRQAPGKVRELVAAINTSGSTYYADSVKGRFTISRDNAKNTVYLQMNSLKPEDTAVYYCAVRVAYKYNYWGQGTQVTVSS	high polyreactivity
QGQLVESGGGLVQAGGSLRLSCAATGLIFDTNAMGWYRQAPGKERELVAAINSTGSTNYADSVKGRFTISRDNAKNTVYLQMNSLKREDTAVYYCAVEYDSSAQPRTEFDYWGQGTQVTVSS	low polyreactivity
QGQLVESGGGLVQAGGSLRLSCPASGYIFWTNNMGWYRQSPGKERELVAAISYSGSSTYYADSVKGRFTISRDNAKNTVYLQMNSLKPEDTAVYYCAKKVRRYPTRYDSWGQGTQVTVSS	high polyreactivity
QGQLVESGGGLVQAGGSLRLTCAASGFSFFDYAMGWYRQAPWKERELVAAISWDGDNTYYADSVKGRFTISRDNAKYTVYLQMNSLKPDDSAVYYCNADYENYEQFFDYWGQGTQVTVSS	high polyreactivity
QGQLVESGGGLVQAGGSLRLTCAASGLTFWWYAMGWYRQAPGKERELVAAISSSGGSTYYADSVKGRFTISRDNAKNTVYLQMNSLKPEDTAVYYCAADGGFEYEYDYWGQGTQVTVTS	low polyreactivity
QGQLVESGGGLVQAGVSLRLTCAASGSTFLTNSMGWYRQAPGKEREFVAAISRTGGSTYYADSVKGRFTISRDNAKNTVYLQMNSLKPEDTAVYYCAVYPYGRWLNYWGQGTQVTVSS	high polyreactivity
QGQLVESGGGLVQGGGSLRLSCAACGSTLPSSARGWYIQAPGKDRELVAALRSGGTTNYADSVKGRFTISRDNAKNTVYVQMNSLKPEDTAVYYCATSRYLYWRSRYDYWGQGTQVTVSS	high polyreactivity
QGQLVESGGRLVQAGGSLRLSCAASGFTFDSYAMAWYRQAPGKERELVASISSSGSTNYADSVKGRFTISRDNAKNTVYLQMNSLKPEDTAVYYCAAVSRYPFIYEYWGQGTQVTVSS	low polyreactivity
QGQLVESGRGLVQAGGSLRLSCAASGRIFVIYDIGWYRQAPGKEREFVAAISWRSGSTYYADSVKGRFTISRDNAKNTVYLQMNSLKPDDTAVYDCNKDYHVRYYYWGQGTQVTVSS	low polyreactivity
QGQLVESGVGLVQAGGSLSLSCAASGSILNNYAMAWYIQAPGKERELVAAISSSGGTNYADSVKGRFTISRDNAKNTVYLQMNSLKPEDTAVYYCNADVLDGGYDYWGQGTQVTVSS	low polyreactivity
QGQLVESRGGLVQAGGRLRLSCAASGAIVSKNAMGWYRQAPGKERELVAAISRSAGSTYYADSVKGRFTISRVNAKNTVYLQLHSLKPEDTAVFYCAADWYYWQLWWGEGDYWGQGTQVTVSS	low polyreactivity
QGQLVESRGGLVQAGGSLRLSCAASGRTFYYYGMGWYIQAPGKERELVATINSGASTYYADSVKGRFTISRDNAKNTVYLQINSLKPEDTAVYYCDAAKENGKYDYWGQGTQVTVSS	high polyreactivity
QGQLVESWGGLVQAGGSLRLSSDASGRTFSLYAMGWYRQAPGKQTELVASITDSTGGSTYYADSVKGRFTISRDNAKNTVYLQMNSLKPADTAVYYSAAQDYQYSDYQWWFGFWGQGTQVTVSS	low polyreactivity
QGQLVETGGGLGQAGGSLRLSCAASGRIFPTNAMGWSRPAPGKERELVAAIPVSGGSTFYADSVKGRFTISRDNAKNTVYLQLNSLKPDDTAVDDCAVDDRASVGSRLDHWGQGTQVTVSS	low polyreactivity

Sequence	polyreactivity (PSR sort gate)
QGQLVVSGGGLVQAGGSLRLSCAASGRTFSVNAMGGYRQAPGKERELVAAITSGASTNYADSVKGRFTISRDNAKNTVYLQMNSLKPEDTAVYYCAADATYGHVPAEYDYWGQGTQVTVSS	low polyreactivity
QGQRVESAGGLVQAGGSLRLSCDASGRIFDNYAMGWSSPAPGKERELVAAISRAGNTYADSVKGRVTISRDNAKNTVNLQMNSLNPEETAVFYCAARLYWGRYNYWGQGTQVTVSS	high polyreactivity
QGQRVESGGGLVQAGGSLRLSCAASGRIFRGYDMGWYRQSPGKERELVAAISGSGGSTYYADSVKGRFTISRDYAKNSVYLQMNSLQPEDTAVYYCAADQQSTGDWAGDYWGQGTQVTVSS	low polyreactivity
QGQRVESGGGLVQAGGSLRLSCAASGSIFHGYAMGWDRQAPGKERELVADITSGGGTYYADSVKGRFTISRDNAKTTVYLQMNSLKPEDTAVYYCATQKSRRYGYWVQGTQVTVSS	low polyreactivity
QHQLVESGGGLVQAGGSLRLSCAASGRTFYWNAMGWYRQAPGKERELVAGISNGGTTTYYADSVKGRFTISRDNAKNTVYLQMNSLKPEDTAVYYCAADIWYFDYDYWGQGTQVNVSS	high polyreactivity
QIQLVESGGGLDQAGGSLRLSCAASGSNFVWNAMGWSRQAPGKERELVAAISYTDGSTYYADSVKGRFTISRDNAKNTVYLQMNSLKREDTAVYYCAAAITPSYTGSQYDYWGQGTQVTVSS	low polyreactivity
QIQLVESGGGLLQAGGSLGLSCAASGSIFVKYAMGWYRQAPGKERELVAAITTGVGSTYYADSVKGRFTISRDNAKNTVYLQMNSVKPEDSAVFYWNAYAYFGPWWSFRATYDYWGQGTQVTVSS	low polyreactivity
QIQLVESGGGLVQAGGSLRLSCAASGFTFYANAMGWYRQAPGKERELVAAISSSGGSTYYADSVKGRFTISRDNAKNTVYLQMNSLKPEDTAVYYCNVYSRHWYRYEFDYWGQGTQVTVSS	high polyreactivity
QIQLVESGGGLVQAGGSLRLSCSASGSISGYYSRRWYRQAPGKQSEFVASIRYTGARTYYADSVKGRFTISLDNAKNTVYLQMNSLIAEDTAVYFWAADVKRDSVWGGDYWGQGNQVTVSS	low polyreactivity
QIQLVESGGGLVQAGSSLRLSCAASGRTFNTYAMGGYRPAPGNERELVAAITYNGGSTYYADSVKGRFTISRDNAKTTVYLQMNSLKPEYTAVYDCNVRLRTRYRKYDYWGQGTQVTVSS	high polyreactivity
QLHLVESGGGLVQAGGSLRLSCAASGRIFGVYAMGWYRQAPGKERELVASITWRGGSTYYADSVKGRFTISRDNAKNTVYLQMNSLKPEDTAVYYCAAAYWYAYEYWGQGTQVTVSS	high polyreactivity
QLKLEESGGGLVQAGGSLRLSCAASGFIFSYNAMGWYRQAPGKERELDAAISSIGSGTYYADSVKGRFTISRDNAKYTVYLQMNSLKPEDTAVYYCAKYLRPRIGSRYYYWGQGTQVTVSS	high polyreactivity
QLQHVESGGGLVQAGGSLRLSCAASGSTFYRNAKGWSRQAPGKEREFVADITLGGGSTYYADSVKGRFTISRDHAKNTVYLQMKSLKPEDTAVYFCAVDYWQLNYDYWGQGTQVTVSS	low polyreactivity
QLQHVESGVGIVQAGRSLRLSCAASGRTFSHYAMGWYRQAPGKERELVAAIRWRGGSTYYADSVKGRFTISRDNAKNTVYLQMNSRKPEDTAVSYCAAVALYIWTHPSDYWGLGTQVTVSS	high polyreactivity
QLQLEDSAGGLVQAGGSLRLSFAASGFIFDPNAIGWYRQAPAKEREFVAAIRTSGGSTYYADSVKGRFTISRDNAKNTVYLQMNSLKPEDPAVYYCAAKGRYADWSGYGYWGQGTQVTVSS	high polyreactivity
QLQLEESVGGLVQAGVSLRLSCAASGRTFRRYAMGSDRPAPAKERELVATIRSGDNTNYADSVKGRFTISRDNAKNTFYLQMKSLKPEDTAVYYCNRSPKSGQVTYLYSVNAHYDYWGQGTQVTVSS	low polyreactivity
QLQLGESAGGLVQAGGSLRLSCAASGSIFGLNAIGWYIQAPGKERELVAAISSGGSTYYADSVKGRFTISRDNAKNTVYLQMNSLKPEDTAVYYCNAYFQYYDYWGLGTQVTVSS	low polyreactivity
QLQLGESGGGLVQAAGSRRLSCAASGRTLCYYAMGWYSQAPGQDRELVAAITWTGGRTYYADSVKGRFTISRDNPKNSVYLQMNTLKPDDTAVDYCNAVYSPRYYVGGYDYWGQGTQVTVSS	high polyreactivity
QLQLQESGGGLVQAGVCLSCTASGTIFGQGDMGWYRQAPGKERELVATINDGASTYYADSVKGRFTISRDKAKNTVYLQKNSLKPDDNAVYYCAVFTDITTYFGYWGQGTQVTVSS	low polyreactivity
QLQLQESGGGLVQGGGSLRLSCAASGSIYRSWYMGWYRQAPGKERELVASMTEGATTNYAYSVKAALPLAAITRNPVYLQMDSMKPEDTAVYYRAASFGSTYDLVYWGKGTQVTVSS	high polyreactivity
QLQLVDSGGGLVKAGGSLRLSCAASGRTFYRYAMGWYRKAPGKERELVAAINFSTGSTYYADSVKGRFTISRDNAKNTVYLQMNSLKPEDTAVYYCAVPYGSYVGYDYWGQGTQVTVSS	low polyreactivity
